Laboratory results published in patent publication US20250152746A1, “BASE EDITING OF ANGPTL3 AND METHODS OF USING SAME FOR TREATMENT OF DISEASE” (Verve Therapeutics, Inc., priority 2020, published 2025).

B1: GA081: PCSK9 gRNA for ABE8.8 splice site editing, Human/Cyno (nucleic acid)
guide: TTTCCAGGTCATCACAGTTGGTTTTAGAGCTAGAAATAGCAAGTTAAAATAAGGCTAGTCCGTTATCAACTTGAAAAAGTGGCACCGAGTCGGTGCTTTT
modifications: listed as RNA; modified_base 1: mod_base = OTHER; note = 2'-O-Methyl-uridine phosphorothioate; modified_base 2: mod_base = OTHER; modified_base
notes: PCSK9 gRNA for ABE8.8 splice site editing, Human/Cyno
B2: GA079: PCSK9 gRNA for ABE8.8 splice site editing, Human/Cyno (nucleic acid)
guide: CTTTCCAGGTCATCACAGTTGTTTTAGAGCTAGAAATAGCAAGTTAAAATAAGGCTAGTCCGTTATCAACTTGAAAAAGTGGCACCGAGTCGGTGCTTTT
modifications: listed as RNA; modified_base 1: mod_base = OTHER; note = 2'-O-Methyl-cytidine phosphorothioate; modified_base 2: mod_base = OTHER; note = 2'-O-Methyl-uridine phosphorothioate; modified_bas
notes: as for B1
B3: GA087: PCSK9 gRNA for ABE8.8 splice site editing, Human/Cyno (nucleic acid)
guide: UCACCTGCTCCTGAGGGGCCGTTTTAGAGCTAGAAATAGCAAGTTAAAATAAGGCTAGTCCGTTATCAACTTGAAAAAGTGGCACCGAGTCGGTGCTTTT
modifications: 2'-O-methyl at 1, 2, other sugars and backbone not given here; further chemistry not fully specified
notes: as for B1
B4: GA088: PCSK9 gRNA for ABE8.8 splice site editing, Human/Cyno (nucleic acid)
guide: CCCAGGCTGCAGCTCCCACTGTTTTAGAGCTAGAAATAGCAAGTTAAAATAAGGCTAGTCCGTTATCAACTTGAAAAAGTGGCACCGAGTCGGTGCTTTT
modifications: 2'-O-methyl at 1, 2, other sugars and backbone not given here; further chemistry not fully specified
notes: as for B1
B5: GA080: PCSK9 gRNA for ABE8.8 splice site editing, Human/Cyno (nucleic acid)
guide: CCTTTCCAGGTCATCACAGTGTTTTAGAGCTAGAAATAGCAAGTTAAAATAAGGCTAGTCCGTTATCAACTTGAAAAAGTGGCACCGAGTCGGTGCTTTT
modifications: 2'-O-methyl at 1, 2, other sugars and backbone not given here; further chemistry not fully specified
notes: as for B1

Tested on: ANGPTL3
Conditions: phase I clinical trials; cited from earlier work

In the case of evinacumab, the lipid lowering effect is given as “significant lipid lowering effect”.

Tested on: PCSK9 gene splice site
Assay type: cell-based, human
Conditions: not given
How it was run: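 Primary human and cynomolgus hepatocytes co-transfected with gRNA plus ABE8.8 mRNA (1:1 by weight) or given LNP formulations across dilutions; genomic DNA harvested 3 days after transfection. Base editing at the PCSK9 intron 1 splice donor quantified by amplicon next-generation sequencing.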

Point of comparison: B5, “Human Primary Hepatocytes-splice site editing % 1250 ng/mL” value 0.4%. Against it:
- B1 — higher, 4.3%
- B2 — higher, 2.2%
- B3 — higher, 1.0%
- B4 — higher, 3.6%

Point of comparison: B4, “Human Primary Hepatocytes-splice site editing % 2500 ng/mL” value 6.2%. Against it:
- B1 — lower, 6.1%
- B2 — lower, 4.9%
- B3 — lower, 1.4%
- B5 — lower, 0.5%

Point of comparison: B1, “Human Primary Hepatocytes-splice site editing % 5000 ng/mL” value 8.3%. Against it:
- B2 — lower, 6.5%
- B3 — lower, 1.9%
- B4 — lower, 7.2%
- B5 — lower, 0.6%

Tested on: PCSK9 gene splice site
Assay type: cell-based, cynomolgus monkey
Conditions: not given
Remark: another data set of the same source
Experimental: PCSK9 gRNAs were co-transfected with an equivalent amount of in vitro transcribed ABE8.8 mRNA MA002 (1:1 ratio by weight) into primary hepatocytes and processed as described in detailed methods. In one set of experiments, extracted genomic DNA was analyzed for base editing of the target splice site with next-generation sequencing of PCR amplicons generated around the target sites. Samples were prepared using the Nextera XT DNA library preparation kit (Illumina) according to the manufacturer's protocol. Briefly, two rounds of PCR were performed first to amplify the region of interest and second to add DNA sequences required for next generation sequencing and sample identification to the initial product. The final amplicon was sequenced on the Illumina MiSeq instrument according to the manufacturer's protocol.
Similarly, three gRNAs (GA098, GA099, GA100) were synthesized matching the 5′-[…]-3′ (SEQ ID NO: 15) (GA091) human protospacer sequence, as well as four gRNAs (GA067/GA101, GA102, GA103, GA347) matching the 5′-[…]-3′ (SEQ ID NO: 14) (GA067) cynomolgus protospacer sequence, but with more extensive chemical modifications of various kinds (Table 1). GA066 and GA095 contain the same chemical composition and modification pattern, as do GA067 and GA101 with one another. […] Each of the gRNAs described in Table 8, with an equivalent amount of in vitro transcribed ABE8.8 mRNA MA002 (1:1 ratio by weight), were co-transfected into primary human hepatocytes and primary cynomolgus hepatocytes via MessengerMax reagent, using various dilutions to assess for editing activity at different concentrations of test article. Three days after transfection, genomic DNA was harvested from the hepatocytes, and then assessed for base editing of the target splice site with next-generation sequencing.
Modifications and/or truncations to either the spacer or tracr portion of the gRNA was assessed by alteration of the GA066 spacer (5′-[…]-3′ (SEQ ID NO: 13)) (Table 12). […] Each of the gRNAs with an equivalent amount of in vitro transcribed ABE8.8 mRNA (1:1 ratio by weight) were co-transfected into primary human hepatocytes and primary cynomolgus hepatocytes and processed as described in detailed methods.
Lipid nanoparticles containing ABE8.8 mRNA and a gRNA matching the human/cynomolgus 5′-[…]-3′ (SEQ ID NO: 13) sequence (GA066) that targets the splice donor at the 5′ end of PCSK9 intron 1 were formulated at a 1:1 ratio by weight. The LNPs were administered to primary human hepatocytes and primary cynomolgus hepatocytes, using various dilutions to assess for editing activity at different concentrations of test article. LNP containing Cas9 mRNA and a gRNA matching a protospacer sequence in another gene, ANGPTL3, as a positive control was used for these experiments.
Plating, culturing, and transfection of primary hepatocytes. Primary human liver hepatocytes (PHH) and primary cynomolgus liver hepatocytes (PCH) from BioIVT were cultured per the manufacturer's protocol. Briefly, primary human hepatocytes and primary cyno hepatocytes were obtained as frozen aliquots from BioIVT.

Point of comparison: B2, “Cynomolgous Primary Hepatocytes-splice site editing % 1250 ng/mL” value 0.6%. Against it:
- B1 — lower, 0.3%
- B3 — lower, 0.2%
- B4 — higher, 17.0%
- B5 — higher, 7.1%

Point of comparison: B2, “Cynomolgous Primary Hepatocytes-splice site editing % 2500 ng/mL” value 0.5%. Against it:
- B1 — lower, 0.3%
- B3 — lower, 0.2%
- B4 — higher, 23.0%
- B5 — higher, 8.8%

Point of comparison: B2, “Cynomolgous Primary Hepatocytes-splice site editing % 5000 ng/mL” value 0.5%. Against it:
- B1 — lower, 0.3%
- B3 — lower, 0.2%
- B4 — higher, 24.8%
- B5 — higher, 7.0%
